From article PMC10810954, “Structural and functional insights into the lipid regulation of human anion exchanger 2” (Nature Communications, 2024)
Where a chain is given by its changes, count along the chain named. Names may count otherwise.

Target: the molecule itself
Assay: cryo-EM structure; purified AE2 in 50 μM GDN, 150 mM NaCl, 20 mM HEPES pH 7.4; Titan Krios 300 kV; homodimer

B1: Full-length canonical human AE2 (isoform 1), wild type (natural protein, UniProt P04920-1 1-1241, looked up)
chain: MSSAPRRPAKGADSFCTPEPESLGPGTPGFPEQEEDELHRTLGVERFEEILQEAGSRGGEEPGRSYGEEDFEYHRQSSHHIHHPLSTHLPPDARRRKTPQGPGRKPRRRPGASPTGETPTIEEGEEDEDEASEAEGARALTQPSPVSTPSSVQFFLQEDDSADRKAERTSPSSPAPLPHQEATPRASKGAQAGTQVEEAEAEAVAVASGTAGGDDGGASGRPLPKAQPGHRSYNLQERRRIGSMTGAEQALLPRVPTDEIEAQTLATADLDLMKSHRFEDVPGVRRHLVRKNAKGSTQSGREGREPGPTPRARPRAPHKPHEVFVELNELLLDKNQEPQWRETARWIKFEEDVEEETERWGKPHVASLSFRSLLELRRTLAHGAVLLDLDQQTLPGVAHQVVEQMVISDQIKAEDRANVLRALLLKHSHPSDEKDFSFPRNISAGSLGSLLGHHHGQGAESDPHVTEPLMGGVPETRLEVERERELPPPAPPAGITRSKSKHELKLLEKIPENAEATVVLVGCVEFLSRPTMAFVRLREAVELDAVLEVPVPVRFLFLLLGPSSANMDYHEIGRSISTLMSDKQFHEAAYLADEREDLLTAINAFLDCSVVLPPSEVQGEELLRSVAHFQRQMLKKREEQGRLLPTGAGLEPKSAQDKALLQMVEAAGAAEDDPLRRTGRPFGGLIRDVRRRYPHYLSDFRDALDPQCLAAVIFIYFAALSPAITFGGLLGEKTQDLIGVSELIMSTALQGVVFCLLGAQPLLVIGFSGPLLVFEEAFFSFCSSNHLEYLVGRVWIGFWLVFLALLMVALEGSFLVRFVSRFTQEIFAFLISLIFIYETFYKLVKIFQEHPLHGCSASNSSEVDGGENMTWAGARPTLGPGNRSLAGQSGQGKPRGQPNTALLSLVLMAGTFFIAFFLRKFKNSRFFPGRIRRVIGDFGVPIAILIMVLVDYSIEDTYTQKLSVPSGFSVTAPEKRGWVINPLGEKSPFPVWMMVASLLPAILVFILIFMETQITTLIISKKERMLQKGSGFHLDLLLIVAMGGICALFGLPWLAAATVRSVTHANALTVMSKAVAPGDKPKIQEVKEQRVTGLLVALLVGLSIVIGDLLRQIPLAVLFGIFLYMGVTSLNGIQFYERLHLLLMPPKHHPDVTYVKKVRTLRMHLFTALQLLCLALLWAVMSTAASLAFPFILILTVPLRMVVLTRIFTDREMKCLDANEAEPVFDEREGVDEYNEMPMPV
notes: Anion exchanger 2 (AE2, SLC4A2), human, isoform a, UniProtKB P04920-1, full length; Full-length protein was purified, but only the TMDs are resolved in the map; the NTD, parts of EL3, EL4, EL6 and the C-terminus are not modelled; also called Anion exchanger 2; hAE2; source: HEK293F (FreeStyle 293 F) cells, BacMam system, purified (LMNG/CHS extraction, Ni-NTA, TEV, Superose 6 in GDN); not shown: …
stoichiometry N: 2

B2: Full-length human AE2 with R932A/K1147A/H1148A mutations (natural protein, UniProt P04920-1 1-1241, looked up)
chain: B1 chain with R932A, K1147A, H1148A
notes: No PIP2 in the map; NTD resolved; also called AE2_(IF/REST); mutant AE2; not shown: GFP, C-terminal, cleaved; His tag, C-terminal, cleaved
stoichiometry N: 2
